This data set concerns the molecule itself. Nature of the data set: SDS PAGE and native PAGE, non-reducing against reducing conditions (self-association).

This is an account of results in patent US20160340402A1 (ALMAC DISCOVERY, published 2016).

B1: full length recombinant His-tagged FKBP-L protein (variant Thr181, Gly186), N-terminal poly-histidine tag (other)
chain: MRGSHHHHHHGMASMTGGQQMGRDLYDDDDKDRWGSMETPPVNTIGEKDTSQPQQEWEKNLRENLDSVIQIRQQPRDPPTETLELEVSPDPASQILEHTQGAEKLVAELEGDSHKSHGSTSQMPEALQASDLWYCPDGSFVKKIVIRGHGLDKPKLGSCCRVLALGFPFGSGPPEGWTELTMGVGPWREETWGELIEKCLESMCQGEEAELQLPGHTGPPVGLTLASFTQGRDSWELETSEKEALAREERARGTELFRAGNPEGAARCYGRALRLLLTLPPPGPPERTVLHANLAACQLLLGQPQLAAQSCDRVLEREPGHLKALYRRGVAQAALGNLEKATADLKKVLAIDPKNRAAQEELGKVVIQGKNQDAGLAQGLRKMFG
notes: also called recombinant FKBP-L; rFKBP-L
In the case of B1, the binding result is “binds”.
